The results in this text go back to patent US20200087373A1 (UNIVERSITY OF COPENHAGEN, published 2020).

For assay [1], the target named is T1, human GIP receptor (human, UniProt P48546 22-466).
T1 sequence (looked up): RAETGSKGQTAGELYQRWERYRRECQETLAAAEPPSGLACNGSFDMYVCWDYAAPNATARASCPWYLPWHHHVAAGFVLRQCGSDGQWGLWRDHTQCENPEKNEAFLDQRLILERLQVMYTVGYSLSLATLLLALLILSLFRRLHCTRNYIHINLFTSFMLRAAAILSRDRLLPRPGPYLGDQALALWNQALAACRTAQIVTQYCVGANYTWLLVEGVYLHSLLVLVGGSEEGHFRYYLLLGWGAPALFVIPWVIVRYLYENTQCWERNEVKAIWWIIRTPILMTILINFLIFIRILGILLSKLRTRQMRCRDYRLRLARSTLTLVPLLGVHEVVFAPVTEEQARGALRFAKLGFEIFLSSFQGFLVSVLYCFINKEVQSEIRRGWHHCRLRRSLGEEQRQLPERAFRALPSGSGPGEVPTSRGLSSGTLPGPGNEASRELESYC
The experiment in a line: cell-based or functional assay.

Assay [2] concerns the target T1, human GIP receptor. The experiment in a line: 125I-hGIP competition binding, COS-7/hGIPR, 2% HSA.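 Further: nonspecific binding defined as radioligand binding to untransfected cells.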
Method: (§1) After incubation, the cells were washed twice in ice-cold binding buffer (+/−2% HSA) and lysed using 200 mM NaOH with 1% SDS for 30 min. Nonspecific binding was determined as the binding of radioactive ligand to untransfected cells.
In assay [3] the target is T1, human GIP receptor. Briefly: 125I-hGIP competition binding, COS-7/hGIPR, 0.1% casein.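 Further: nonspecific binding defined as radioligand binding measured on untransfected cells.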
Method: as §1
Assay [4] concerns the target T1, human GIP receptor. Briefly: 125I-hGIP competition binding, COS-7 cells expressing hGIPR.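 Further: nonspecific binding taken as radioligand bound by untransfected cells, binding buffer with or without 2% HSA.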
Method: as §1
The target in assay [5] is T1, human GIP receptor. The experiment in a line: IC50 with 2% HSA over IC50 with 0.1% casein, 125I-hGIP competition, COS-7/hGIPR.
Method: as §1

Ends that are not written are not given here. * marks the point of attachment. C16 diacid = O=C(O)CCCCCCCCCCCCCCC(=O)*

B1: AT169 [hGIP(5-30)NH2[I7K]-C16diacid/7] (peptide)
peptide: TFK(C16 diacid)SDYSIAMDKIHQQDFVNWLLAQK-NH2
modifications: N-terminus assumed
SMILES: CC[C@H](C)[C@H](NC(=O)[C@H](CO)NC(=O)[C@H](Cc1ccc(O)cc1)NC(=O)[C@H](CC(=O)O)NC(=O)[C@H](CO)NC(=O)[C@H](CCCCNC(=O)CCCCCCCCCCCCCCC(=O)O)NC(=O)[C@H](Cc1ccccc1)NC(=O)[C@@H](N)[C@@H](C)O)C(=O)N[C@@H](C)C(=O)N[C@@H](CCSC)C(=O)N[C@@H](CC(=O)O)C(=O)N[C@@H](CCCCN)C(=O)N[C@H](C(=O)N[C@@H](Cc1c[nH]cn1)C(=O)N[C@@H](CCC(N)=O)C(=O)N[C@@H](CCC(N)=O)C(=O)N[C@@H](CC(=O)O)C(=O)N[C@@H](Cc1ccccc1)C(=O)N[C@H](C(=O)N[C@@H](CC(N)=O)C(=O)N[C@@H](Cc1c[nH]c2ccccc12)C(=O)N[C@@H](CC(C)C)C(=O)N[C@@H](CC(C)C)C(=O)N[C@@H](C)C(=O)N[C@@H](CCC(N)=O)C(=O)N[C@@H](CCCCN)C(N)=O)C(C)C)[C@@H](C)CC
With B1, in the assay with human GIP receptor [1], the “cAMP agonism, Emax” value turned out to be 0; the “cAMP antagonism” value turned out to be 37 nM; the “cAMP antagonism, log” value is -7.4 log M. Moreover, in the assay with human GIP receptor [2], the half-inhibitory concentration (IC50) was 166 nM and the logIC50 is -6.8 log M. Besides, in the assay with human GIP receptor [3], the IC50 is 28.8 nM and the logIC50 is -7.5 log M. Also, in the assay with human GIP receptor [4], the half-maximal inhibitory concentration (IC50) is 28 nM and the “log IC50” value was -7.5 log M. In the assay with human GIP receptor [5], the “Fold change HSA (2%)/Casein (0.1%)” value amounted to 5.8 fold.

B2: AT172 [hGIP(5-30)NH2[Y10K]-C16diacid/10] (peptide)
peptide: TFISDK(C16 diacid)SIAMDKIHQQDFVNWLLAQK-NH2
modifications: N-terminus assumed
SMILES: CC[C@H](C)[C@H](NC(=O)[C@H](CO)NC(=O)[C@H](CCCCNC(=O)CCCCCCCCCCCCCCC(=O)O)NC(=O)[C@H](CC(=O)O)NC(=O)[C@H](CO)NC(=O)[C@@H](NC(=O)[C@H](Cc1ccccc1)NC(=O)[C@@H](N)[C@@H](C)O)[C@@H](C)CC)C(=O)N[C@@H](C)C(=O)N[C@@H](CCSC)C(=O)N[C@@H](CC(=O)O)C(=O)N[C@@H](CCCCN)C(=O)N[C@H](C(=O)N[C@@H](Cc1c[nH]cn1)C(=O)N[C@@H](CCC(N)=O)C(=O)N[C@@H](CCC(N)=O)C(=O)N[C@@H](CC(=O)O)C(=O)N[C@@H](Cc1ccccc1)C(=O)N[C@H](C(=O)N[C@@H](CC(N)=O)C(=O)N[C@@H](Cc1c[nH]c2ccccc12)C(=O)N[C@@H](CC(C)C)C(=O)N[C@@H](CC(C)C)C(=O)N[C@@H](C)C(=O)N[C@@H](CCC(N)=O)C(=O)N[C@@H](CCCCN)C(N)=O)C(C)C)[C@@H](C)CC
Consider B2, for which, in the assay with human GIP receptor [1], the “cAMP agonism, Emax” value came to 0; the “cAMP antagonism” value worked out at 259 nM; the “cAMP antagonism, log” value is -6.6 log M. In the assay with human GIP receptor [2], this molecule showed an IC50 of 955 nM and a logIC50 of -6 log M. In the assay with human GIP receptor [3], the 50% inhibitory concentration (IC50) amounted to 251 nM and the logIC50 is -6.6 log M. Also, in the assay with human GIP receptor [4], the IC50 was found to be 252 nM and the “log IC50” value was -6.6 log M. Besides, in the assay with human GIP receptor [5], the “Fold change HSA (2%)/Casein (0.1%)” value came out at 3.8 fold.

B3: AT173 [hGIP(5-30)NH2[S11K]-C16diacid/11] (peptide)
peptide: TFISDYK(C16 diacid)IAMDKIHQQDFVNWLLAQK-NH2
modifications: N-terminus assumed
SMILES: CC[C@H](C)[C@H](NC(=O)[C@H](CCCCNC(=O)CCCCCCCCCCCCCCC(=O)O)NC(=O)[C@H](Cc1ccc(O)cc1)NC(=O)[C@H](CC(=O)O)NC(=O)[C@H](CO)NC(=O)[C@@H](NC(=O)[C@H](Cc1ccccc1)NC(=O)[C@@H](N)[C@@H](C)O)[C@@H](C)CC)C(=O)N[C@@H](C)C(=O)N[C@@H](CCSC)C(=O)N[C@@H](CC(=O)O)C(=O)N[C@@H](CCCCN)C(=O)N[C@H](C(=O)N[C@@H](Cc1c[nH]cn1)C(=O)N[C@@H](CCC(N)=O)C(=O)N[C@@H](CCC(N)=O)C(=O)N[C@@H](CC(=O)O)C(=O)N[C@@H](Cc1ccccc1)C(=O)N[C@H](C(=O)N[C@@H](CC(N)=O)C(=O)N[C@@H](Cc1c[nH]c2ccccc12)C(=O)N[C@@H](CC(C)C)C(=O)N[C@@H](CC(C)C)C(=O)N[C@@H](C)C(=O)N[C@@H](CCC(N)=O)C(=O)N[C@@H](CCCCN)C(N)=O)C(C)C)[C@@H](C)CC
Consider B3, for which, in the assay with human GIP receptor [1], the “cAMP agonism, Emax” value came to 0; the “cAMP antagonism” value worked out at 10 nM; the “cAMP antagonism, log” value was -8 log M. In the assay with human GIP receptor [2], this molecule returned an IC50 of 60.3 nM and a logIC50 of -7.2 log M. Moreover, in the assay with human GIP receptor [3], the IC50 is 8.1 nM and the logIC50 was -8.1 log M. Besides, in the assay with human GIP receptor [4], the IC50 was 8 nM and the “log IC50” value was -8.1 log M. Moreover, the “Fold change HSA (2%)/Casein (0.1%)” value with human GIP receptor [5] was 7.4 fold.

B4: AT171 [hGIP(5-30)NH2[D9K]-C16diacid/9] (peptide)
peptide: TFISK(C16 diacid)YSIAMDKIHQQDFVNWLLAQK-NH2
modifications: N-terminus assumed
SMILES: CC[C@H](C)[C@H](NC(=O)[C@H](CO)NC(=O)[C@H](Cc1ccc(O)cc1)NC(=O)[C@H](CCCCNC(=O)CCCCCCCCCCCCCCC(=O)O)NC(=O)[C@H](CO)NC(=O)[C@@H](NC(=O)[C@H](Cc1ccccc1)NC(=O)[C@@H](N)[C@@H](C)O)[C@@H](C)CC)C(=O)N[C@@H](C)C(=O)N[C@@H](CCSC)C(=O)N[C@@H](CC(=O)O)C(=O)N[C@@H](CCCCN)C(=O)N[C@H](C(=O)N[C@@H](Cc1c[nH]cn1)C(=O)N[C@@H](CCC(N)=O)C(=O)N[C@@H](CCC(N)=O)C(=O)N[C@@H](CC(=O)O)C(=O)N[C@@H](Cc1ccccc1)C(=O)N[C@H](C(=O)N[C@@H](CC(N)=O)C(=O)N[C@@H](Cc1c[nH]c2ccccc12)C(=O)N[C@@H](CC(C)C)C(=O)N[C@@H](CC(C)C)C(=O)N[C@@H](C)C(=O)N[C@@H](CCC(N)=O)C(=O)N[C@@H](CCCCN)C(N)=O)C(C)C)[C@@H](C)CC
For B4, in the assay with human GIP receptor [1], the “cAMP agonism, Emax” value turned out to be 0; the “cAMP antagonism” value was determined as 35 nM; the “cAMP antagonism, log” value is -7.5 log M. In the assay with human GIP receptor [2], this molecule yielded a half-inhibitory concentration (IC50) of 661 nM and a logIC50 of -6.2 log M. In the assay with human GIP receptor [3], this molecule displayed an IC50 of 79.4 nM and a logIC50 of -7.1 log M. In the assay with human GIP receptor [4], the half-maximal inhibitory concentration (IC50) worked out at 86 nM and the “log IC50” value is -7.1 log M. Moreover, the “Fold change HSA (2%)/Casein (0.1%)” value with human GIP receptor [5] stood at 8.3 fold.

B5: AT174 [hGIP(5-30)NH2[I12K]-C16diacid/12] (peptide)
peptide: TFISDYSK(C16 diacid)AMDKIHQQDFVNWLLAQK-NH2
modifications: N-terminus assumed
SMILES: CC[C@H](C)[C@H](NC(=O)[C@H](CCCCN)NC(=O)[C@H](CC(=O)O)NC(=O)[C@H](CCSC)NC(=O)[C@H](C)NC(=O)[C@H](CCCCNC(=O)CCCCCCCCCCCCCCC(=O)O)NC(=O)[C@H](CO)NC(=O)[C@H](Cc1ccc(O)cc1)NC(=O)[C@H](CC(=O)O)NC(=O)[C@H](CO)NC(=O)[C@@H](NC(=O)[C@H](Cc1ccccc1)NC(=O)[C@@H](N)[C@@H](C)O)[C@@H](C)CC)C(=O)N[C@@H](Cc1c[nH]cn1)C(=O)N[C@@H](CCC(N)=O)C(=O)N[C@@H](CCC(N)=O)C(=O)N[C@@H](CC(=O)O)C(=O)N[C@@H](Cc1ccccc1)C(=O)N[C@H](C(=O)N[C@@H](CC(N)=O)C(=O)N[C@@H](Cc1c[nH]c2ccccc12)C(=O)N[C@@H](CC(C)C)C(=O)N[C@@H](CC(C)C)C(=O)N[C@@H](C)C(=O)N[C@@H](CCC(N)=O)C(=O)N[C@@H](CCCCN)C(N)=O)C(C)C
In the case of B5, in the assay with human GIP receptor [1], the “cAMP agonism, Emax” value is 0; the “cAMP antagonism” value was 23 nM; the “cAMP antagonism, log” value was -7.6 log M. In the assay with human GIP receptor [2], this molecule yielded an IC50 of 282 nM and a logIC50 of -6.6 log M. In the assay with human GIP receptor [3], the IC50 came out at 79.4 nM and the logIC50 was -7.1 log M. Also, in the assay with human GIP receptor [4], the 50% inhibitory concentration (IC50) amounted to 80 nM and the “log IC50” value is -7.1 log M. For the same molecule, the “Fold change HSA (2%)/Casein (0.1%)” value with human GIP receptor [5] was found to be 3.5 fold.

B6: AT170 [hGIP(5-30)NH2[S8K]-C16diacid/8] (peptide)
peptide: TFIK(C16 diacid)DYSIAMDKIHQQDFVNWLLAQK-NH2
modifications: N-terminus assumed
SMILES: CC[C@H](C)[C@H](NC(=O)[C@H](CO)NC(=O)[C@H](Cc1ccc(O)cc1)NC(=O)[C@H](CC(=O)O)NC(=O)[C@H](CCCCNC(=O)CCCCCCCCCCCCCCC(=O)O)NC(=O)[C@@H](NC(=O)[C@H](Cc1ccccc1)NC(=O)[C@@H](N)[C@@H](C)O)[C@@H](C)CC)C(=O)N[C@@H](C)C(=O)N[C@@H](CCSC)C(=O)N[C@@H](CC(=O)O)C(=O)N[C@@H](CCCCN)C(=O)N[C@H](C(=O)N[C@@H](Cc1c[nH]cn1)C(=O)N[C@@H](CCC(N)=O)C(=O)N[C@@H](CCC(N)=O)C(=O)N[C@@H](CC(=O)O)C(=O)N[C@@H](Cc1ccccc1)C(=O)N[C@H](C(=O)N[C@@H](CC(N)=O)C(=O)N[C@@H](Cc1c[nH]c2ccccc12)C(=O)N[C@@H](CC(C)C)C(=O)N[C@@H](CC(C)C)C(=O)N[C@@H](C)C(=O)N[C@@H](CCC(N)=O)C(=O)N[C@@H](CCCCN)C(N)=O)C(C)C)[C@@H](C)CC
As for B6, in the assay with human GIP receptor [1], the “cAMP agonism, Emax” value was found to be 0; the “cAMP antagonism” value came to 507 nM; the “cAMP antagonism, log” value was -6.3 log M. In the assay with human GIP receptor [2], the half-inhibitory concentration (IC50) was 1380 nM and the logIC50 was -5.9 log M. In addition, in the assay with human GIP receptor [3], the IC50 was 631 nM and the logIC50 was -6.2 log M. In addition, in the assay with human GIP receptor [4], the IC50 was 628 nM and the “log IC50” value was -6.2 log M. For the same molecule, the “Fold change HSA (2%)/Casein (0.1%)” value in the assay with human GIP receptor [5] came to 2.2 fold.
